{"source": "the RNAGym collection of RNA variant scans (doi:10.7554/elife.80360)", "parents": {"B1": {"name": "Twister Ribozyme (parent)", "chain": "AACACUGCCAAUGCCGGUCCCAAGCCCGGAUAAAAGUGGAGGGGGCGG"}}}
{"variants_of": "B1", "test": "self-cleavage, relative activity (ratio to wild type); higher = more cleavage; co-transcriptional"}
{"variant": "A34C", "self-cleavage": 0.378}
{"variant": "A34G", "self-cleavage": 0.874}
{"variant": "A34U", "self-cleavage": 0.915}
{"variant": "A34G G39U", "self-cleavage": 0.102}
{"variant": "A34G G39C", "self-cleavage": 0.109}
{"variant": "A34C G42U", "self-cleavage": 0.113}
{"variant": "A34C G42A", "self-cleavage": 0.143}
{"variant": "A34C G42C", "self-cleavage": 0.184}
{"variant": "A34G G48U", "self-cleavage": 0.876}
{"variant": "A34G G45C", "self-cleavage": 0.274}
{"variant": "A33G G38C", "self-cleavage": 0.878}
{"variant": "A33G G38A", "self-cleavage": 0.709}
{"variant": "A35C G39C", "self-cleavage": 0.153}
{"variant": "A35C G39A", "self-cleavage": 0.221}
{"variant": "A35U G39A", "self-cleavage": 0.316}
{"variant": "A35U G39U", "self-cleavage": 0.134}
{"variant": "A33G G39C", "self-cleavage": 0.118}
{"variant": "A33G G39A", "self-cleavage": 0.362}
{"variant": "A33G G39U", "self-cleavage": 0.222}
{"variant": "A34C G39U", "self-cleavage": 0.11}
{"variant": "A35G G43C", "self-cleavage": 0.16}
{"variant": "A35G G43U", "self-cleavage": 0.13}
{"variant": "A34G G38U", "self-cleavage": 0.677}
{"variant": "A35G G47U", "self-cleavage": 0.81}
{"variant": "A35G G47C", "self-cleavage": 0.562}
{"variant": "A34G A40G", "self-cleavage": 0.111}
{"variant": "A34G A40U", "self-cleavage": 0.122}
{"variant": "A35G G42U", "self-cleavage": 0.133}
{"variant": "A35G G42A", "self-cleavage": 0.115}
{"variant": "A35G G42C", "self-cleavage": 0.141}
{"variant": "A35G G39U", "self-cleavage": 0.18}
{"variant": "A35G G39A", "self-cleavage": 0.374}
{"variant": "A33G A40U", "self-cleavage": 0.184}
{"variant": "A33U G48C", "self-cleavage": 1.08}
{"variant": "A33U G48A", "self-cleavage": 0.889}
{"variant": "A34C G38A", "self-cleavage": 0.232}
{"variant": "A34C G38C", "self-cleavage": 0.157}
{"variant": "A35C G42U", "self-cleavage": 0.415}
{"variant": "A35C G42A", "self-cleavage": 0.32}
{"variant": "A35G G44U", "self-cleavage": 0.831}
{"variant": "A33U G43U", "self-cleavage": 0.421}
{"variant": "A33G G36U", "self-cleavage": 0.256}
{"variant": "A33G G36A", "self-cleavage": 0.509}
{"variant": "A35C G45U", "self-cleavage": 0.855}
{"variant": "A35C G45A", "self-cleavage": 0.807}
{"variant": "A35G A40U", "self-cleavage": 0.107}
{"variant": "A35G A40G", "self-cleavage": 0.118}
{"variant": "A35C A40C", "self-cleavage": 0.154}
{"variant": "A33U A40U", "self-cleavage": 0.157}
{"variant": "A33U A40C", "self-cleavage": 0.234}
{"variant": "A34U G43A", "self-cleavage": 0.209}
{"variant": "A35G C46A", "self-cleavage": 0.747}
{"variant": "A33G G45C", "self-cleavage": 0.545}
{"variant": "A33U A35G", "self-cleavage": 0.8}
{"variant": "A33U A35U", "self-cleavage": 0.926}
{"variant": "A33U A35C", "self-cleavage": 0.961}
{"variant": "A34C A35G", "self-cleavage": 0.212}
{"variant": "A34C A35U", "self-cleavage": 0.811}
{"variant": "A35C U37G", "self-cleavage": 0.703}
{"variant": "A34G G42C", "self-cleavage": 0.185}
{"variant": "A34G G42A", "self-cleavage": 0.133}
{"variant": "A35G G48U", "self-cleavage": 0.882}
{"variant": "A35G G48A", "self-cleavage": 0.913}
{"variant": "A35G G48C", "self-cleavage": 1.04}
{"variant": "A34U C46G", "self-cleavage": 0.839}
{"variant": "A34U C46U", "self-cleavage": 0.84}
{"variant": "A33G G41A", "self-cleavage": 0.453}
{"variant": "A33G G41U", "self-cleavage": 0.381}
{"variant": "A33U G47U", "self-cleavage": 0.81}
{"variant": "A33U G47A", "self-cleavage": 0.739}
{"variant": "A35G U37C", "self-cleavage": 0.056}
{"variant": "A35G U37G", "self-cleavage": 0.585}
{"variant": "A34C G47U", "self-cleavage": 0.107}
{"variant": "A34C G47A", "self-cleavage": 0.122}
{"variant": "A33U G45C", "self-cleavage": 0.554}
{"variant": "A34C G48U", "self-cleavage": 0.21}
{"variant": "A34C G48C", "self-cleavage": 0.2}
{"variant": "A34U G44C", "self-cleavage": 0.766}
{"variant": "A34U G44A", "self-cleavage": 0.893}
{"variant": "A34U U37G", "self-cleavage": 0.372}
{"variant": "A34C U37C", "self-cleavage": 0.116}
{"variant": "A34C U37A", "self-cleavage": 0.169}
{"variant": "A34C U37G", "self-cleavage": 0.249}
{"variant": "A33U G36A", "self-cleavage": 0.282}
{"variant": "A33U G36U", "self-cleavage": 0.132}
{"variant": "A34C G43U", "self-cleavage": 0.14}
{"variant": "A34C G43C", "self-cleavage": 0.103}
{"variant": "A34C G43A", "self-cleavage": 0.13}
{"variant": "A33U U37A", "self-cleavage": 0.688}
{"variant": "A33U U37G", "self-cleavage": 0.591}
{"variant": "A35G G45C", "self-cleavage": 0.373}
{"variant": "A34G A35U", "self-cleavage": 0.92}
{"variant": "A34G A35G", "self-cleavage": 0.526}
{"variant": "A33U C46G", "self-cleavage": 0.921}
{"variant": "A33U C46U", "self-cleavage": 0.917}
{"variant": "A33U C46A", "self-cleavage": 0.851}
{"variant": "A35C G47U", "self-cleavage": 0.932}
{"variant": "A35C G47A", "self-cleavage": 0.832}
{"variant": "A35U G41A", "self-cleavage": 0.678}
{"variant": "A35U G38C", "self-cleavage": 0.973}
{"variant": "A34U G45U", "self-cleavage": 0.59}
{"variant": "A34C C46G", "self-cleavage": 0.154}
{"variant": "A34C C46U", "self-cleavage": 0.251}
{"variant": "A34U G41U", "self-cleavage": 0.185}
{"variant": "A34U G41A", "self-cleavage": 0.163}
{"variant": "A34U G41C", "self-cleavage": 0.176}
{"variant": "A34U G47U", "self-cleavage": 0.502}
{"variant": "A34U G47A", "self-cleavage": 0.601}
{"variant": "A34U G47C", "self-cleavage": 0.247}
{"variant": "A33G G42A", "self-cleavage": 0.215}
{"variant": "A35C G48U", "self-cleavage": 0.978}
{"variant": "A35C G48C", "self-cleavage": 1.08}
{"variant": "A35C G48A", "self-cleavage": 0.917}
{"variant": "A33U G38U", "self-cleavage": 0.815}
{"variant": "A35C G36U", "self-cleavage": 0.477}
{"variant": "A35C G36A", "self-cleavage": 0.491}
{"variant": "A34C G45C", "self-cleavage": 0.0937}
{"variant": "A34C G45A", "self-cleavage": 0.144}
{"variant": "A34C G45U", "self-cleavage": 0.167}
{"variant": "A35U G36C", "self-cleavage": 0.592}
{"variant": "A35U G36A", "self-cleavage": 0.593}
{"variant": "A34G G41A", "self-cleavage": 0.141}
{"variant": "A34G G41U", "self-cleavage": 0.131}
{"variant": "A34G C46A", "self-cleavage": 0.736}
{"variant": "A34G C46U", "self-cleavage": 0.834}
{"variant": "A34G G36A", "self-cleavage": 0.164}
{"variant": "A34G G36U", "self-cleavage": 0.105}
{"variant": "A35G G41A", "self-cleavage": 0.246}
{"variant": "A35G G38U", "self-cleavage": 0.667}
{"variant": "A35G G38A", "self-cleavage": 0.199}
{"variant": "A35C G44C", "self-cleavage": 0.943}
{"variant": "A33G G47C", "self-cleavage": 0.394}
{"variant": "A35C G41A", "self-cleavage": 0.611}
{"variant": "A33U A34U", "self-cleavage": 0.847}
{"variant": "A33U A34C", "self-cleavage": 0.637}
{"variant": "A34U A35U", "self-cleavage": 0.841}
{"variant": "A34U A35C", "self-cleavage": 0.892}
{"variant": "A35C C46A", "self-cleavage": 0.98}
{"variant": "A35C C46G", "self-cleavage": 0.828}
{"variant": "A35C C46U", "self-cleavage": 0.879}
{"variant": "A35C G38A", "self-cleavage": 0.9}
{"variant": "A35C G38U", "self-cleavage": 0.881}
{"variant": "A33G A35G", "self-cleavage": 0.865}
{"variant": "A33G A35U", "self-cleavage": 0.789}
{"variant": "A33G U37G", "self-cleavage": 0.601}
{"variant": "A35G G36C", "self-cleavage": 0.491}
{"variant": "A35G G36U", "self-cleavage": 0.765}
{"variant": "A35G G36A", "self-cleavage": 0.718}
{"variant": "A33G C46G", "self-cleavage": 0.855}
{"variant": "A34G U37A", "self-cleavage": 0.444}
{"variant": "A35U A40C", "self-cleavage": 0.195}
{"variant": "A34G G44U", "self-cleavage": 0.722}
{"variant": "A34G G44C", "self-cleavage": 0.783}
{"variant": "A35C G43U", "self-cleavage": 0.456}
{"variant": "A34G G47A", "self-cleavage": 0.477}
{"variant": "A34U G48C", "self-cleavage": 0.855}
{"variant": "A34U G36A", "self-cleavage": 0.157}
{"variant": "A34C A40G", "self-cleavage": 0.145}
{"variant": "A34U G38U", "self-cleavage": 0.506}
{"variant": "A33G G44A", "self-cleavage": 0.79}
{"variant": "A33U G44A", "self-cleavage": 0.907}
{"variant": "A33U G44C", "self-cleavage": 0.928}
{"variant": "A34U G39A", "self-cleavage": 0.199}
{"variant": "A34U G39U", "self-cleavage": 0.139}
{"variant": "A33G G43U", "self-cleavage": 0.238}
{"variant": "A34C G41C", "self-cleavage": 0.111}
{"variant": "A34C G41U", "self-cleavage": 0.112}
